Results published in article PMC7272049.
One block for each substance: values may come before it.

Key:
B7-1 (Homo sapiens) = B7-1 (Homo sapiens) (UniProt P33681); conditions: cited from earlier work
B7-1 (Mus musculus) = B7-1 (Mus musculus) (UniProt Q00609); conditions: cited from earlier work
mB7-1 mIgG2a = mB7-1 mIgG2a (UniProt Q00609); test: FACS titration; conditions: cells expressing PD-L1 titrated with recombinant B7-1 Fc-fusion; anti-mouse Alexa 488 secondary; single-site binding model
mPD-1 mIgG2a = mPD-1 mIgG2a (UniProt Q02242); test: FACS titration; conditions: cells expressing PD-L1 titrated with recombinant PD-1 Fc-fusion; anti-mouse Alexa 488 secondary; single-site binding model

Chain of PD-L1 (Q9EP73 19-239): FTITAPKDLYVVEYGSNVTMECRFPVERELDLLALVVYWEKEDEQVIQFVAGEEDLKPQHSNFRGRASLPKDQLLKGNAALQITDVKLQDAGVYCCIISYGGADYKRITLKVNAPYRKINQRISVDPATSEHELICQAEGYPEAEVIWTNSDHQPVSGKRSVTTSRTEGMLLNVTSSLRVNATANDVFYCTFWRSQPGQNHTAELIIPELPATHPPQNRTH
Chain of B7-1 (P33681 35-242): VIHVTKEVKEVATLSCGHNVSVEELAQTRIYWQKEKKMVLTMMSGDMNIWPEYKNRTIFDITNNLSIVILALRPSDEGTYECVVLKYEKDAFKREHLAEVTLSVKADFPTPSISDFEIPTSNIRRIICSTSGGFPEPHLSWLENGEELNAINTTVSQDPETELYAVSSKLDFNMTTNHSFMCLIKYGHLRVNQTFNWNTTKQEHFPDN

Substance: B7-1 (from UniProt P33681)
Kd (B7-1 (Homo sapiens)): 35 µM

Substance: PD-L1 (from UniProt Q9EP73)
Kd (B7-1 (Mus musculus)): 1.6 µM

other: Bmax (mB7-1 mIgG2a): 73.1 | other: Bmax (mPD-1 mIgG2a): 93.4
Substance: WT mPD-L1 mCherry (from UniProt Q9EP73) D28R
